According to US8168595B2, “Antithrombotic dual inhibitors comprising a biotin residue” (priority 2004, dated 2012):
Structures can show the parent of a compound that is named as a salt. Where two headings read alike, the source gives them in different places.

What was measured:
[1] = in vivo; cited from earlier work
[2] = Pharmacokinetics after s.c. administration in rats; assay type: in vivo, male Wistar rats; settings: rat, 100 nmol/kg s.c.; for AUC(0-inf) / MRT / Tmax / half-life / Cmax: male, Wistar, sc; for AUC(0-inf) / MRT / Tmax / half-life: plasma, 100 nmol/kg; for AUC(0-inf) / MRT / Tmax / half-life / Cmax / Cl / Vz: mean ± s.e.m.; for AUC(0-inf) / MRT / Tmax / Cmax / Cl / Vz: n = 3; for half-life: n = 3, read-out: T½ eli (converted); for pharmacokinetic behavior in rats, compound III compared with Org 42675: within the variability of the experiment
Procedure: 3.1 Pharmacokinetics The pharmacokinetic properties of Org 42675 and of compound III of this invention were studied in male Wistar rats of 300-400 gr. The rats were anaesthetized by inhalation of a mixture of O2/N2O/isoflurane, after which the right jugular vein was cannulated. The next day rats were treated s.c. with doses of 100 nmol/kg. After s.c. administration, blood was sampled at several time intervals. Then the blood was centrifuged after which the plasma was siphoned off and stored at −20° C. until use. The concentration of the tested compound was measured amidolytically using S-2222 or S-2238 as substrates (Chromogenix, Chromogenics Ltd, Molndal, Sweden) to determine the anti-Xa or anti-IIa activity, respectively. Both procedures were based on the methods of Teien and Lie (Teien A N, Lie M. Evaluation of an amidolytic heparin assay method increased sensitivity by adding purified antithrombin III. Thromb. Res. 1977, 10: 399-410). The concentrations in the obtained plasma samples were determined against a calibration curve which was made of the stock solution of the tested compound itself. The concentration in the samples was expressed in nmol/mL and the kinetic parameters were calculated with the noncompartment model of WinNonlin. (see FIG. 1)

[3] = experimental thrombosis; cited from earlier work
factor Xa = test: In vitro amidolytic anti-factor Xa activity in human plasma (S2222); assay type: biochemical; settings: human plasma pH 7.4, substrate S2222; read-out: Anti-Xa Human plasma pH 7.4 IC-50
Procedure: (§1) In Vitro Test for Determination of the Anti-Factor Xa and Factor IIa Activity in Human Plasma The anti-factor Xa and IIa activity of the tested compounds in human plasma were measured amidolytically using S2222 or S2238 (Chromogenix, Chromogenics Ltd, Molndal, Sweden) as substrates, respectively. The protcols were based on the method described by Teien and Lie. (Teien A N, Lie M. Evaluation of an amidolytic heparin assay method increased sensitivity by adding purified antithrombin III. Thromb. Res. 1977, 10: 399-410). Both activities are expressed in IC-50 (Mol/L).

factor IIa = factor IIa (Homo sapiens, UniProt P00734); test: In vitro amidolytic anti-factor IIa activity in human plasma (S2238); assay type: biochemical; settings: human plasma pH 7.4, substrate S2238; read-out: Anti-IIa Human plasma pH 7.4 IC-50
Procedure: as §1

[4] = Pharmacokinetics - neutralization experiment with avidin in rats; assay type: in vivo; settings: rat, 100 nmol/kg s.c.
Procedure: 3.2 Pharmacokinetics—Neutralization Experiment:
Rats were treated with compound III of this invention, or Org 42675 at a dose of 100 nmol/kg s.c. At t=2 h, a blood sample was taken and 10 mg/kg of Avidin (from egg white, Sigma) was administered i.v. to the rats treated with compound III of this invention or Org 42675. Blood was sampled at 0.17, 0.5, 1, 2, 3, and 7 hours subsequently. The blood was treated as described in the pharmacokinetic experiment and the concentration of the samples was determined by measuring the (residual) anti-Xa or anti-IIa activity. (see FIG. 2)

[5] = plasma level by anti_Xa activity
[6] = plasma level by anti-IIa activity

SMILES | AUC(0-inf) [2, 5] | MRT [2, 5] | Tmax [2, 5] | half-life [2, 5] | Cmax [2, 5] | Cl [2, 5] | Vz [2, 5] | pharmacokinetic behavior in rats, compound III compared with Org 42675 [2] | IC50 (factor Xa) | IC50 (factor IIa) | further results
COc1cc(C)c(S(=O)(=O)N[C@@H](CC(=O)NCCCC(=O)NCCOCCOCCOCCO[C@H]2[C@H](OC)[C@@H](OC)[C@@H](O[C@H]3[C@H](OC)[C@@H](OC)[C@H](O[C@H]4[C@H](OS(=O)(=O)O)[C@@H](OS(=O)(=O)O)[C@@H](O[C@H]5[C@H](OC)[C@@H](OC)[C@H](O[C@H]6[C@H](OC)[C@@H](OS(=O)(=O)O)[C@@H](OC)O[C@@H]6COS(=O)(=O)O)O[C@H]5C(=O)O)O[C@@H]4COS(=O)(=O)O)O[C@@H]3C(=O)O)O[C@@H]2COS(=O)(=O)O)C(=O)N[C@H](Cc2ccc(C(=N)N)cc2)C(=O)N2CCCCC2)c(C)c1C [Org 42675, reference compound] | 5.3 ± 0.3 µM·h | 4.6 ± 0.2 h | 2.3 ± 0.2 h | 2.7 ± 0.2 h | 1000 ± 20 nM | 0.318 ± 0.0183 mL/min/kg | 0.074 ± 0.0045 L/kg | the same pharmacokinetic behavior | 0.767 nM | 17.8 nM | prolonged half-life in comparison to the corresponding non-conjugated direct thrombin inhibitor derived from NAPAP [1]: 10 fold; efficacy in comparison with argatroban, heparin and fondaparinux [3]: improved efficacy; AUC(0-inf) ([4]; Wistar, plasma, subcutaneous, avidin 10 mg/kg i.v. at t = 2 h, calculated from T = 2 h, anti_Xa activity, mean ± s.e.m., n = 3): 4.8 ± 0.6 µM·h; pharmacokinetic behavior on addition of avidin ([4]; avidin 10 mg/kg i.v. at t = 2 h): not affected
COc1cc(C)c(S(=O)(=O)N[C@@H](CC(=O)NCCCC(=O)N[C@@H](CCCCNC(=O)CCCC[C@@H]2SC[C@@H]3NC(=O)N[C@@H]32)C(=O)NCCOCCOCCOCCO[C@H]2[C@H](OC)[C@@H](OC)[C@@H](O[C@H]3[C@H](OC)[C@@H](OC)[C@H](O[C@H]4[C@H](OS(=O)(=O)O)[C@@H](OS(=O)(=O)O)[C@@H](O[C@H]5[C@H](OC)[C@@H](OC)[C@H](O[C@H]6[C@H](OC)[C@@H](OS(=O)(=O)O)[C@@H](OC)O[C@@H]6COS(=O)(=O)O)O[C@H]5C(=O)O)O[C@@H]4COS(=O)(=O)O)O[C@@H]3C(=O)O)O[C@@H]2COS(=O)(=O)O)C(=O)N[C@H](Cc2ccc(C(=N)N)cc2)C(=O)N2CCCCC2)c(C)c1C [Compound III, sodium salt] | 7.2 ± 0.2 µM·h | 5.9 ± 0.5 h | 1.2 ± 0.4 h | 3.9 ± 0.3 h | 1100 ± 100 nM | 0.232 ± 0.0067 mL/min/kg | 0.078 ± 0.0046 L/kg | the same pharmacokinetic behavior | 0.843 nM | 16.2 nM | AUC(0-inf) [2, 6]: 5 ± 0.6 µM·h; MRT [2, 6]: 4.3 ± 0.3 h; Tmax [2, 6]: 1.5 ± 0.5 h; half-life [2, 6]: 2.7 ± 0.5 h; Cl [2, 6]: 0.343 ± 0.04 mL/min/kg; Vz [2, 6]: 0.078 ± 0.0042 L/kg; neutralization of antithrombotic activity ((residual) anti-Xa and anti-IIa activity) by avidin ([4]; avidin 10 mg/kg i.v.): can be neutralized
